Measured values from US8034904B2, “Anti-IGF-I receptor antibody” (Immunogen Inc., priority 2002, dated 2011).

Key:
HT-29 colon cancer cells = test: Growth and survival of HT-29 cells (MTT assay, colony formation); format: cell-based, human
Experimental: (§1) Several human tumor cell lines were tested in serum-free conditions for their growth and survival response to IGF-I. These cell lines were treated with EM164 antibody in the presence of IGF-I, IGF-II, or serum, and their growth and survival responses were measured using an MTT assay after 2-4 days. Approximately 1500 cells were plated in a 96-well plate in regular medium with serum, which was replaced with serum-free medium the following day (either serum-free RPMI medium supplemented with transferrin and BSA, or phenol-red free medium as specified by Dufourny, B. et al., 1997, J. Biol. Chem., 272, 31163-31171). After one day of growth in serum-free medium, the cells were incubated with about 75 μL of 10 μg/mL antibody for 30 min.-3 h, followed by the addition of 25 μL of IGF-I (or IGF-II or serum) solution to obtain a final concentration of 10 ng/mL IGF-I, or 20 ng/mL IGF-II, or 0.04-10% serum. In some experiments, the cells were stimulated first with IGF-I for 15 min before the addition of EM164 antibody, or both IGF-I and EM164 antibody were added together. The cells were then allowed to grow for another 2-3 days. A solution of MTT (3-(4,5)-dimethylthiazol-2-yl)-2,5-diphenyltetrazolium bromide; 25 μL of a 5 mg/mL solution in PBS) was then added and the cells were returned to the incubator for 2-3 h. The medium was then removed and replaced by 100 μL DMSO, mixed, and the absorbance of the plate was measured at 545 nm.

HT-3 (cervical) cells = test: Growth and survival of HT-3 cells (MTT assay); format: cell-based, human; settings: 5-10 μg/mL EM164, 10 ng/mL IGF-I
Experimental: as §1, with “A solution of MTT (3-(4,5)-dimethylthiazol-2-yl)-2,5-diphenyltetrazolium bromide; 25 μL of a 5 mg/mL solution in PBS) was then added and the cells were returned to the incubator for 2-3 h.” left out

MCF-7 cells = test: Growth inhibition of MCF-7 cells by counting cells; format: cell-based, human; settings: 10 μg/mL EM164
Experimental: The growth inhibition of MCF-7 cells by EM164 antibody was measured by counting cells. Thus, in a 12-well plate, about 7500 cells were plated in RPMI medium with 10% FBS, in the presence or absence of 10 μg/mL EM164 antibody. After 5 days of growth, the cell count for the untreated control sample was 20.5×10^4 cells, in contrast to a cell count of only 1.7×10^4 cells for the EM164 antibody-treated sample.

[1] = target: T1, IGF-I receptor of MCF-7 cells (Homo sapiens, UniProt P08069); test: Immunoprecipitation of IGF-I receptor from MCF-7 lysate; format: binding; settings: MCF-7 lysate (human)
T1 construct: human breast cancer MCF-7 cells, which expressed IGF-I receptor; endogenous in cells; host or cells: MCF-7 human breast cancer cells
Text: A Western blot of the EM164 antibody immunoprecipitate was detected using a rabbit polyclonal anti-IGF-I receptor beta chain (C-terminus) antibody (Santa Cruz Biotechnology) and a goat-anti-rabbit-IgG-antibody-horseradish peroxidase conjugate, followed by washes and enhanced chemiluminescence (ECL) detection.

[2] = target: T2, IGF-I receptor on NCI-H838 cells (Homo sapiens, UniProt P08069); test: IGF-I displacement in NCI-H838 lung cancer cells; format: cell-based; settings: 4° C., 2 h
T2 construct: endogenous in cells; host or cells: NCI-H838 lung cancer cells
Experimental: (or at 4° C.) for 1 to 2 h. […] (or at 4° C.) for 30 min to 4 h. Cells were then washed with PBS and lysed in lysis buffer containing 1% NP-40 at 4° C.

B1: EM164: murine anti-IGF-I receptor monoclonal antibody, IgG1 with kappa light chain, hybridoma ATCC PTA-4457; heavy SEQ ID NO:7, light SEQ ID NO:8 (antibody)
heavy: QVQLQQSGAELVKPGASVKLSCKASGYTFTSYWMHWVKQRPGQGLEWIGEINPSNGRTNYNEKFKRKATLTVDKSSSTAYMQLSSLTSEDSAVYYFARGRPDYYGSSKWYFDVWGAGTTVTVSS
light: DVLMTQTPLSLPVSLGDQASISCRSSQSIVHSNVNTYLEWYLQKPGQSPKLLIYKVSNRFSGVPDRFSGSGSGTDFTLRISRVEAEDLGIYYCFQGSHVPPTFGGGTKLEIKR
modifications: antibody heavy chain; antibody light chain
**Q.** Which results are given for B1?
**A.** colony size of HT29 colon cancer cells (HT-29 colon cancer cells): greatly reduced; Inhibition by EM164 antibody of IGF-I-stimulated growth in serum-free medium (HT-29 colon cancer cells; HT-29, 5-10 μg/mL EM164, 10 ng/mL IGF-I): 60%; % Inhibition by EM164 antibody of Growth/survival of cells in 1.25-10% serum (HT-29 colon cancer cells; HT-29, 5-10 μg/mL EM164, MTT or colony formation assay): Yes; Inhibition by EM164 antibody of IGF-I-stimulated growth in serum-free medium (HT-3 (cervical) cells): 70-90%; cell count after 5 days of growth (MCF-7 cells; RPMI with 10% FBS, about 7500 cells plated, untreated control 20.5×10^4 cells): 1.7×10^4 cells; inhibition of growth of MCF-7 cells (MCF-7 cells; in 5 days, 10% FBS): about 12 fold; immunoprecipitation of IGF-I receptor [1]: can be used for immunoprecipitation of IGF-I receptor; decrease in the bound biotin-IGF-I [2]: 80%
